Read-outs that look alike come from different tables or passages of the source.
Legend:
[1] = biological target: T1, CD3E on the surface of Jurkat-NFAT-Luc cells (UniProt P07766 23-207); assay: cell-based or functional assay
[2] = biological target: T1, CD3E on the surface of Jurkat-NFAT-Luc …; assay: cell-based or functional assay; remark: listed apart in the source
[3] = biological target: T2, Human CD3D&E-Bio (human, UniProt P07766 23-126; P04234 22-105, biotin-labeled (site not stated)); assay: BLI (Octet Red96e), SA or AHC sensors, 1:1 fit
T2 construct: Bought heterodimer antigen; also called human CD3D&E heterodimer antigen (ACRO Biosystems); human CD3E
Method: (§1) Sensors (Fortebio, Cat #18-5019) coupled to streptavidin protein (SA) or anti-human-Fc (AHC) were pre-wetted by immersion in 200 μL of SD buffer (1×PBS, 0.1% BSA, 0.05% tween-20). Exemplary antibodies and biotin-labeled or Fc-tagged BCMA and CD3D&E heterodimer antigens were diluted with SD buffer, respectively. 200 μL of SD buffer and diluted samples (100 nM) were taken and added to a 96-well black plate (Greiner, Cat #655209), respectively. The sensors and the samples were placed in Octet (Fortebio, Red96e). Data Acquisition 10.0 was executed and “New Kinetic Experiment” was selected. The sensors were arranged according to the positions of the samples, and the operation procedures and times were set as: Baseline 60 s, Loading 250 s, Baseline 100 s, Association 600 s and Dissociation 600 s. The experiment was conducted at a rotation speed of 1000 rpm and 30° C.
(§2) The results were analyzed in “Data Analysis 10.0” software, with the buffer reference channel being subtracted. 1:1 binding was selected to fit the data, and kₒₙ, koff, and KD values for the exemplary antibodies were calculated.
(§3) In experiments performed according to the above-mentioned assay, the affinities of the exemplary antibodies were detected using a human CD3D&E heterodimer antigen (ACRO Biosystems) and a monkey CD3D&E heterodimer antigen (ACRO Biosystems). The binding affinities of GPRC5D×CD3 bispecific antibodies hz5E12.1-P1/SP34.24 and hz5E12.1-P1/SP34.87 to human/monkey CD3D&E were also detected.

[4] = biological target: T3, Cyno CD3D&E-Bio (monkey (cyno), UniProt Q95LI5 22-117; Q95LI8 22-105, biotin-labeled (site not stated)); assay: BLI (Octet Red96e), SA or AHC sensors, 1:1 fit
T3 construct: Bought heterodimer antigen; also called monkey CD3D&E heterodimer antigen (ACRO Biosystems); monkey CD3E
Method: as §1, §2, §3

[5] = biological target: T1, CD3E on the surface of Jurkat-NFAT-Luc …; assay: cell-based or functional assay; remark: listed apart in the source
[6] = biological target: T1, CD3E on the surface of Jurkat-NFAT-Luc …; assay: cell-based or functional assay; remark: listed apart in the source
[7] = biological target: T1, CD3E on the surface of Jurkat-NFAT-Luc …; assay: cell-based or functional assay; remark: listed apart in the source

T3 sequence (Q95LI5 22-117 limits assumed, chain 1 of 2): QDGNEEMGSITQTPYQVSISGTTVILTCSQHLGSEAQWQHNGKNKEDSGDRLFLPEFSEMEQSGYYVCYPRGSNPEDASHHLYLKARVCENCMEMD
T3 sequence (Q95LI8 22-105 limits assumed, chain 2 of 2): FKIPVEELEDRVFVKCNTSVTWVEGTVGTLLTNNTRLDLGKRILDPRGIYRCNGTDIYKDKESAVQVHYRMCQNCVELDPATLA
T2 sequence (P07766 23-126 limits assumed, chain 1 of 2): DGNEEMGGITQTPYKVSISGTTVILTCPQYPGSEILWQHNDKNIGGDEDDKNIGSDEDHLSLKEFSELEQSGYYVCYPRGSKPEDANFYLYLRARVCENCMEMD
T2 sequence (P04234 22-105 limits assumed, chain 2 of 2): as the sequence (Q95LI8 22-105 limits assumed, chain 2 of 2) above, with V5I, K15N, V20I, T32S, N33D, N34I, A64T, N74S, L83V counted along it
T1 sequence (P07766 23-207): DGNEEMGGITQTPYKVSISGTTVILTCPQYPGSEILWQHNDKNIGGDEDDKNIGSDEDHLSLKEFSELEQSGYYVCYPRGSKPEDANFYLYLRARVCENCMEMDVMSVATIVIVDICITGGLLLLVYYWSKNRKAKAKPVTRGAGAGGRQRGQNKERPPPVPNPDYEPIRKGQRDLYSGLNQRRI

B1: GPRC5D × CD3 (HB15H/hzsp34.24) (bispecific antibody, V domains shown)
VH 1: QVQLVESGGGVVQPGRSLRLSCTASGFTFSSYGLHWVRQAPGKGLEWVAVIWYDGSNKYYIDSVKGRFIISRDNSKNTLYLQMNSLRAEDTAVYYCARFTMFRGITLDYWGQGTLVTVSS
VL 1: DIQMTQSPSSLSASVGDRVTITCRASQRINSYLNWYQQKPGKAPKLLIYAASSLQSGVPSRFSGSGSGTDFTLTISNLQPEDFATYYCQQSYSTPLTFGGGTKVEIK
VH 2: EVQLVESGGGLVQPGGSLKLSCAASGFTFNTYAMNWVRQASGKGLEWVGRIRSKYNNYATYYADSVKDRFTISRDDSKSTLYLQMNSLKTEDTAVYYCARHGNFGQSYVSWFAYWGQGTTVTVSS
VL 2: QAVVTQEPSLTVSPGGTVTLTCRSSTGAVTTSNYANWVQQKPGQAPRGLIGGTNKRAPGVPARFSGSLLGDKAALTLLGAQPEDEAEYYCALWYSNLWVFGQGTKLTVL
In the case of B1, the “EC50 of Jurkat-NFAT-Luc luciferase activation; tumor cells H929” value (“EC50 … tumor cells H929” below) [1] is reported as 0.01 nM and the “EC50 of Jurkat-NFAT-Luc luciferase activation; tumor cells L363” value (“EC50 … tumor cells L363” for short) [1] is reported as 0.28 nM.

B2: GPRC5D×CD3 bispecific antibody hz5E12.1-P1/SP34.24 (bispecific antibody, V domains shown)
VH 1: QVQLVQSGAEVKKPGASVKVSCKASGYTFIGYVMHWVRQAPGQGLEWMGYINPYNDVSQHQGKFKGRVTMTSDTSTSTVYMELSSLRSEDTAVYYCAREGRLGLRVLAYWGQGTLVTVSS
VL 1: DIVMTQSPDSLAVSLGERATINCRASESVDSYGITFMNWYQQKPGQPPKLLIYAASNQGSGVPDRFSGSGSGTDFTLTISSLQAEDVAVYYCQQSKEVPWTFGQGTKLEIK
VH 2: EVQLVESGGGLVQPGGSLKLSCAASGFTFNTYAMNWVRQASGKGLEWVGRIRSKYNNYATYYADSVKDRFTISRDDSKSTLYLQMNSLKTEDTAVYYCARHGNFGQSYVSWFAYWGQGTTVTVSS
VL 2: QAVVTQEPSLTVSPGGTVTLTCRSSTGAVTTSNYANWVQQKPGQAPRGLIGGTNKRAPGVPARFSGSLLGDKAALTLLGAQPEDEAEYYCALWYSNLWVFGQGTKLTVL
In the case of B2, the “EC50 of Jurkat-NFAT-Luc luciferase activation; tumor cells 8226” value (“EC50 … tumor cells 8226” for short) [2] is reported as 0.00318 nM, the “EC50 … tumor cells H929” value [2] is reported as 0.00656 nM and the “EC50 … tumor cells L363” value [2] is reported as 0.00559 nM. The “EC50 of Jurkat-NFAT-Luc luciferase activation; tumor cells U266” value (from here on “EC50 … tumor cells U266”) [2] was 0.0057 nM, the Kd [3] was 21.4 nM and the koff [3] was 0.00335 s⁻¹. It also gave a kon [3] of 156000 M⁻¹ s⁻¹, a Kd [4] of 26 nM and a koff [4] of 0.00319 s⁻¹. The kon [4] was 123000 M⁻¹ s⁻¹, the “EC50 of Jurkat-NFAT-Luc luciferase activation; tumor cells ARD” value (“EC50 … tumor cells ARD” for short) [5] was 0.00273 nM and the “EC50 of Jurkat-NFAT-Luc luciferase activation; tumor cells MM.1S” value (shortened to “EC50 … tumor cells MM.1S”) [5] was 0.00225 nM. For the same binder, the “EC50 … tumor cells 8226” value [6] was 0.00318 nM, the “EC50 … tumor cells H929” value [6] was 0.00656 nM and the “EC50 … tumor cells L363” value [6] was 0.00559 nM. For the same binder, the “EC50 … tumor cells U266” value [6] was 0.0057 nM.

B3: GPRC5D×CD3 bispecific antibody hz5E12.1-P1/SP34.87 (bispecific antibody, V domains shown)
VH 1: QVQLVQSGAEVKKPGASVKVSCKASGYTFIGYVMHWVRQAPGQGLEWMGYINPYNDVSQHQGKFKGRVTMTSDTSTSTVYMELSSLRSEDTAVYYCAREGRLGLRVLAYWGQGTLVTVSS
VL 1: DIVMTQSPDSLAVSLGERATINCRASESVDSYGITFMNWYQQKPGQPPKLLIYAASNQGSGVPDRFSGSGSGTDFTLTISSLQAEDVAVYYCQQSKEVPWTFGQGTKLEIK
VH 2: EVQLVESGGGLVQPGGSLKLSCAASGFTFNTYAMNWVRQASGKGLEWVGRIRSKYNNYATYYADSVKDRFTISRDDSKSTLYLQMNSLKTEDTAVYYCARHYNFGQSYVSWFAYWGQGTTVTVSS
VL 2: QAVVTQEPSLTVSPGGTVTLTCRSSTGAVTTSNYANWVQQKPGQAPRGLIGGTNKRAPGVPARFSGSLLGDKAALTLLGAQPEDEAEYYCALWYSNLWVFGQGTKLTVL
B3 was tested, and the “EC50 … tumor cells 8226” value [2] was 0.0201 nM, the “EC50 … tumor cells H929” value [2] was 0.0453 nM and the “EC50 … tumor cells L363” value [2] was 0.0389 nM. For the same binder, the “EC50 … tumor cells U266” value [2] was 0.145 nM, the Kd [3] was 285 nM and the koff [3] was 0.0176 s⁻¹. It also gave a kon [3] of 61900 M⁻¹ s⁻¹, a Kd [4] of 290 nM and a koff [4] of 0.0169 s⁻¹. The kon [4] was 58300 M⁻¹ s⁻¹, the “EC50 … tumor cells ARD” value [5] was 0.0149 nM and the “EC50 … tumor cells MM.1S” value [5] was 0.0183 nM.

B4: BCMA×CD3 bispecific antibody 46758 (bispecific antibody, human IgG1, kappa, L234A L235A)
chain 1: not shown
chain 2: not shown
chain 3: DIVMTQSPDSLAVSLGERATINCKSSQSLLNARTGKNYLAWYQQKPGQPPKLLIYWASTRESGVPDRFSGSGSGTDFTLTISSLQAEDVAVYYCKQSYSRRTFGCGTKVEIKGGGGSGGGGSGGGGSGGGGSQVQLVQSGAEVKKPGASVKVSCKASGFNIKDYYMHWVRQAPGQCLEWMGWIDLENANTVYNAKFQGRVTITRDTSASTAYMELSSLRSEDTAVYYCARDAYGRYFYDVWGQGTLVTVSSGSEPKSSDKTHTCPPCPAPEAAGGPSVFLFPPKPKDTLMISRTPEVTCVVVDVSHEDPEVKFNWYVDGVEVHNAKTKPREEQYNSTYRVVSVLTVLHQDWLNGKEYKCKVSNKALPAPIEKTISKAKGQPREPQVCTLPPSRDELTKNQVSLSCAVKGFYPSDIAVEWESNGQPENNYKTTPPVLDSDGSFFLVSKLTVDKSRWQQGNVFSCSVMHEALHNHYTQKSLSLSPGK
In the case of B4, the “EC50 … tumor cells 8226” value [2] is reported as 0.0798 nM, the “EC50 … tumor cells H929” value [2] is reported as 0.0835 nM and the “EC50 … tumor cells L363” value [2] is reported as 0.0901 nM. For the same binder, the “EC50 … tumor cells U266” value [2] was 0.603 nM, the “EC50 … tumor cells ARD” value [5] was 0.133 nM and the “EC50 … tumor cells MM.1S” value [5] was 0.159 nM. For the same binder, the “EC50 … tumor cells H929” value [1] was 0.07 nM, the “EC50 … tumor cells L363” value [1] was 0.43 nM and the “EC50 … tumor cells 8226” value [6] was 0.0798 nM. The “EC50 … tumor cells H929” value [6] was 0.0835 nM, the “EC50 … tumor cells L363” value [6] was 0.0901 nM and the “EC50 … tumor cells U266” value [6] was 0.603 nM. The “EC50 of Jurkat-NFAT-Luc luciferase activation; target cells huGPRC5D-GS-CHO” value [7] was 0.0059 nM, the “EC50 … tumor cells H929” value [7] was 0.344 nM and the “EC50 … tumor cells L363” value [7] was 0.192 nM. The “EC50 … tumor cells U266” value [7] was 0.0311 nM.

B5: TS-F2-1 (HB15H1G1/SP34.24/38456) (antibody, human IgG1, kappa, lambda, L234A L235A)
heavy 1: not shown
light 1: not shown
heavy 2: not shown
light 2: QAVVTQEPSLTVSPGGTVTLTCRSSTGAVTTSNYANWVQQKPGQAPRGLIGGTNKRAPGVPARFSGSLLGDKAALTLLGAQPEDEAEYYCALWYSNLWVFGQGTKLTVLGQPKAAPSVTLFPPSSEELQANKATLVCLISDFYPGAVTVAWKADSSPVKAGVETTTPSKQSNNKYAASSYLSLTPEQWKSHRSYSCQVTHEGSTVEKTVAPTECS
With B5 the “EC50 … tumor cells L363” value [1] was 0.24 nM.

B6: TS-F2-2 (38456/SP34.24/HB15H1G1) (antibody, human IgG1, kappa, lambda, L234A L235A)
heavy 1: not shown
light 1: not shown
heavy 2: not shown
light 2: QAVVTQEPSLTVSPGGTVTLTCRSSTGAVTTSNYANWVQQKPGQAPRGLIGGTNKRAPGVPARFSGSLLGDKAALTLLGAQPEDEAEYYCALWYSNLWVFGQGTKLTVLGQPKAAPSVTLFPPSSEELQANKATLVCLISDFYPGAVTVAWKADSSPVKAGVETTTPSKQSNNKYAASSYLSLTPEQWKSHRSYSCQVTHEGSTVEKTVAPTECS
In the case of B6, the “EC50 … tumor cells H929” value [1] is reported as 0.01 nM and the “EC50 … tumor cells L363” value [1] is reported as 0.13 nM.

Source: patent US20250074996A1 (Innovent, published 2025)
